Test results from doi:10.64898/2025.12.22.696049 (bioRxiv, 2025).
Blank lines part the entries; values can stand above or below the molecule they belong to.

Legend:
Assay in all cases: cryo-EM structure
[1] = molecular target: S. cerevisiae fatty acid synthase subunit FAS1/ß (S. cerevisiae (endogenous in W303 or BY4742 cells)) (UniProt P07149)
[2] = molecular target: S. pombe fatty acid synthase subunit FAS1/ß (S. pombe (endogenous in K972 cells)) (UniProt Q9UUG0)
[3] = molecular target: the molecule itself

stoichiometry N [1]: 3
Molecule: S. cerevisiae fatty acid synthase subunit FAS1/ß, P07149 1-2051

stoichiometry N [2]: 3
Molecule: S. pombe fatty acid synthase subunit FAS1/ß, Q9UUG0 1-2073

B1: S. cerevisiae fatty acid synthase subunit FAS2/α (enzyme, UniProt P19097 1-1887, looked up)
chain: MKPEVEQELAHILLTELLAYQFASPVRWIETQDVFLKDFNTERVVEIGPSPTLAGMAQRTLKNKYESYDAALSLHREILCYSKDAKEIYYTPDPSELAAKEEPAKEEAPAPTPAASAPAPAAAAPAPVAAAAPAAAAAEIADEPVKASLLLHVLVAHKLKKSLDSIPMSKTIKDLVGGKSTVQNEILGDLGKEFGTTPEKPEETPLEELAETFQDTFSGALGKQSSSLLSRLISSKMPGGFTITVARKYLQTRWGLPSGRQDGVLLVALSNEPAARLGSEADAKAFLDSMAQKYASIVGVDLSSAASASGAAGAGAAAGAAMIDAGALEEITKDHKVLARQQLQVLARYLKMDLDNGERKFLKEKDTVAELQAQLDYLNAELGEFFVNGVATSFSRKKARTFDSSWNWAKQSLLSLYFEIIHGVLKNVDREVVSEAINIMNRSNDALIKFMEYHISNTDETKGENYQLVKTLGEQLIENCKQVLDVDPVYKDVAKPTGPKTAIDKNGNITYSEEPREKVRKLSQYVQEMALGGPITKESQPTIEEDLTRVYKAISAQADKQDISSSTRVEFEKLYSDLMKFLESSKEIDPSQTTQLAGMDVEDALDKDSTKEVASLPNKSTISKTVSSTIPRETIPFLHLRKKTPAGDWKYDRQLSSLFLDGLEKAAFNGVTFKDKYVLITGAGKGSIGAEVLQGLLQGGAKVVVTTSRFSKQVTDYYQSIYAKYGAKGSTLIVVPFNQGSKQDVEALIEFIYDTEKNGGLGWDLDAIIPFAAIPEQGIELEHIDSKSEFAHRIMLTNILRMMGCVKKQKSARGIETRPAQVILPMSPNHGTFGGDGMYSESKLSLETLFNRWHSESWANQLTVCGAIIGWTRGTGLMSANNIIAEGIEKMGVRTFSQKEMAFNLLGLLTPEVVELCQKSPVMADLNGGLQFVPELKEFTAKLRKELVETSEVRKAVSIETALEHKVVNGNSADAAYAQVEIQPRANIQLDFPELKPYKQVKQIAPAELEGLLDLERVIVVTGFAEVGPWGSARTRWEMEAFGEFSLEGCVEMAWIMGFISYHNGNLKGRPYTGWVDSKTKEPVDDKDVKAKYETSILEHSGIRLIEPELFNGYNPEKKEMIQEVIVEEDLEPFEASKETAEQFKHQHGDKVDIFEIPETGEYSVKLLKGATLYIPKALRFDRLVAGQIPTGWNAKTYGISDDIISQVDPITLFVLVSVVEAFIASGITDPYEMYKYVHVSEVGNCSGSGMGGVSALRGMFKDRFKDEPVQNDILQESFINTMSAWVNMLLISSSGPIKTPVGACATSVESVDIGVETILSGKARICIVGGYDDFQEEGSFEFGNMKATSNTLEEFEHGRTPAEMSRPATTTRNGFMEAQGAGIQIIMQADLALKMGVPIYGIVAMAATATDKIGRSVPAPGKGILTTAREHHSSVKYASPNLNMKYRKRQLVTREAQIKDWVENELEALKLEAEEIPSEDQNEFLLERTREIHNEAESQLRAAQQQWGNDFYKRDPRIAPLRGALATYGLTIDDLGVASFHGTSTKANDKNESATINEMMKHLGRSEGNPVIGVFQKFLTGHPKGAAGAWMMNGALQILNSGIIPGNRNADNVDKILEQFEYVLYPSKTLKTDGVRAVSITSFGFGQKGGQAIVVHPDYLYGAITEDRYNEYVAKVSAREKSAYKFFHNGMIYNKLFVSKEHAPYTDELEEDVYLDPLARVSKDKKSGSLTFNSKNIQSKDSYINANTIETAKMIENMTKEKVSNGGVGVDVELITSINVENDTFIERNFTPQEIEYCSAQPSVQSSFAGTWSAKEAVFKSLGVKSLGGGAALKDIEIVRVNKNAPAVELHGNAKKAAEEAGVTDVKVSISHDDLQAVAVAVSTKK
stoichiometry N [3]: 6

B2: S. pombe fatty acid synthase subunit FAS2/α (enzyme, S. pombe (endogenous in K972 cells), UniProt Q10289 1-1842, looked up)
chain: MRPEVEQELAHTLLLELLAYQFASPVRWIETQDVILSPPVSAERIVEIGPSPTLAGMAKRTLKLKYENMDAALSINREVLCYSKDAREIYYNFEDEVADEPAEAPASTSSTPKVETAAAAAPAATPAPAPAQTSAPAAALPDEPPKALEVLHTLVAQKLKKSIEEVSPQKSIKDLVGGKSTLQNEILGDLQKEFGATPEKPEEVPLDELGAIMQSSFNGSLGKQSSSLISRMISSKMPGGFNNSAVRGYLGNRYGLGPGRLESVLLLALTMEPASRLGSEADAKAWLDSVAQKYAARNGVTLSSPTAEGGSSSGSAAVIDEETFKKLTKNNTMLVTQQLELFARYLNKDLRAGQKAQVAEKVISDTLRAQLDLWNEEHGEFYASGIAPIFSPLKARVYDSDWNWARQDALKMFFDIIFGRLKHVDTEIVARCISVMNRSNPTLLEFMQYHIDHCPAEKGETYQLAKTLGQQLIDNCKSVIDAPPVFKNVNHPTAPSTTIDERGNLNYEEIPRPGVRKLTHYVTEMAKGGKLPTESKNKAKVQNDLARIYRIIKSQNKMSRSSKLQIKQLYGQVLHALSLPLPSSNDEQTPVKETIPFLHIRKKSVDGNWEFNKSLTGTYLDVLESGAKNGITYQDKYALVTGAGAGSIGAQIVEGLLAGGAKVVVTTSRFSRKVTEFYQSLYTRHGSRGSCLIVVPFNQGSKTDVEALIDYIYDEKKGLGWNLDYIVPFAAIPENGREIDGIDSRSEFAHRIMLTNILRLLGAVKSQKASRGMDTRPAQVILPLSPNHGTFGNDGLYSESKLGLETLFNRWYSESWANYLTICGAVIGWTRGTGLMAPNNIVSQGIEKYGVRTFSQSEMAFNILGLMSQKVVDLCQSEPIYANLNGGLELLPDLKDLSTRLRTELLETAEIRRAVAAETAFDHSITNGPDSEAVFQKTAIQPRANLKFNFPKLKPYEALSHLSDLRGMVDLEKVPVVTGFSEVGPWGNSRTRWDMECYGEFSLEGCVEIAWIMGLIKNFNGKGKDGKPYSGWVDTKTGEPVDDKDVKAKYEKYILEHCGIRIIEAELFHGYNPEKKELLQEVVIDHDLEPFEASKEAAHEFKLRHGDQVEIFEIPDSTEWSVRFKRGTSMLIPKALRFDRFVAGQIPLGWDPKRYGIPDDIISQVDPTTLYVLVSTVEALVASGITDPYECYKYIHVSELGNTVGSGIGGMSALRGMYKDRWTDKPVQKDILQESFINTANAWINMLLLSASGPIKTPVGACATAVESVDAAVDLITSGKARICISGGYDDFSEEGSYEFANMGATSNAAKETERGRTPQEMSRPATSTRDGFMESQGAGVQIIMQAKLAIEMGVPIHGIVGYVSTAMDKQGRSVPAPGQGILTGAREIATKTPLPIVDLKFRSRQLQRRRSQIGEWAEREYLYLEEELDAMKVQNPDLDLEAYRIERINVIKEEVVRQEKEALNTFGNEFWKRDPTIAPIRGALAVWGLTIDDLGVASFHGTSTKANEKNECDVIDSQLTHLGRSKGNAVYGVFQKYLTGHSKGGAGAWMLNGALQILRSGFVPGNRNADNIDEYLARFDRVMFPSEGIQTDGIKAASVTAFGFGQVGGQVIVIHPDYIYGVIDEATYNAYKAKTAARYKASYRYTHDALVYNNLVRAKDSPPYTKEQEKAVYLNPLARASKSKAGTWTFPATLPAESDISKTNETTRTLQSLTTSLTNSNENVGVDVELVSAISIDNETFIERNFTDTERKYCFAAPNPQASFAGRWSAKEAVFKSLGISGKGAAAPLKDIEIISSESGAPEVVLHGEAAKAATTAGVKSVSVSISHDDNQSVSVALAHK
stoichiometry N [3]: 6
